{
  "source": "patent US5180678A",
  "about": "“Uses of substantially pure interleukin-9 receptor” (Ludwig Institute for Cancer Research, priority 1992, dated 1993)",
  "molecules": {"B1": {"name": "GM-CSF: granulocyte, macrophage colony stimulating factor tested as competitor of IL-9 binding (protein, UniProt P01587 18-141, looked up)", "Granulocyte-macrophage …": "APTRSPITVTRPWKHVEAIKEALNLLDDMPVTLNEEVEVVSNEFSFKKLTCVQTRLKIFEQGLRGNFTKLKGALNMTASYYQTYCPPTPETDCETQVTTYADFIDSLKTFLTDIPFECKKPGQK"}, "B2": {"name": "IFN-γ: interferon-γ tested as competitor of IL-9 binding (protein, UniProt P01579 24-161, looked up)", "Interferon gamma": "QDPYVKEAENLKKYFNAGHSDVADNGTLFLGILKNWKEESDRKIMQSQIVSFYFKLFKNFKDDQSIQKSVETIKEDMNVKFFNSNKKKRDDFEKLTNYSVTDLNVQRKAIHELIQVMAELSPAAKTGKRKRSQMLFRG"}, "B3": {"name": "rIL-9: recombinant mouse IL-9 from baculovirus infected Sf9 cells, 22-25 kilodaltons; used unlabelled and 125I-labelled (protein, UniProt P15247 19-144, looked up)", "Interleukin-9": "QRCSTTWGIRDTNYLIENLKDDPPSKCSCSGNVTSCLCLSVPTDDCTTPCYREGLLQLTNATQKSRLLPVFHRVKRIVEVLKNITCPSFSCEKPCNQTMAGNTLSFLKSLLGTFQKTEMQRQKSRP", "modifications": "125I-labelled in some uses", "notes": "recombinant mouse IL-9 from baculovirus infected Sf9 cells, 22-25 kilodaltons; used unlabelled and 125I-labelled"}},
  "key": {"[1]": {"biological_target": "T1, IL-9R (Mus musculus, UniProt Q01114)", "T1 sequence (Q01114 38-468)": "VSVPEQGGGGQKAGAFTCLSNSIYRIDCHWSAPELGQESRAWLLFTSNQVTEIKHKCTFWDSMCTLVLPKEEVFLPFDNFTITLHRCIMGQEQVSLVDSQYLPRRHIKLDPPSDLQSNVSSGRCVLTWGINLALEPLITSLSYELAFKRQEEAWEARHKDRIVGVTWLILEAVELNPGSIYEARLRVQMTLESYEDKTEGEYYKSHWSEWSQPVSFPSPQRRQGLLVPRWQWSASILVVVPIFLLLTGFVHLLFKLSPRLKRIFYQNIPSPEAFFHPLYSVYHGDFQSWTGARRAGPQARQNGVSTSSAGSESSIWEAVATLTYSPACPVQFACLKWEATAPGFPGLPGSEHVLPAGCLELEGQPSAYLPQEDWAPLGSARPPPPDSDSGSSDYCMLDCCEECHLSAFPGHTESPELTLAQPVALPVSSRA", "assay": "Competitive binding of radiolabelled rIL-9 to TS1 cells (specificity of IL-9 binding)", "parameters": "a number of different cell types were tested for the presence of the IL-9R molecule; endogenous in cells", "conditions": "labelled rIL-9 6.1×10^-10 M, 10^6 TS1 cells, 3 h 4° C., no competitor 4083 ± 16", "experimental": "In order to test whether the radioactive IL-9 would bind to TS1 cells which are mouse cells, which are IL-9 dependent, a competitive assay was carried out. Specifically, rIL-9 was incubated with TS1 cells in 140 ul of DMEM containing BSA (10 mg/ml) and Na3 N (10 mM). In order to determine the level of binding, a 100 fold excess of \"cold\", i.e., non-radiolabelledIL-9, was also mixed with the material. The rIL-9 was admixed at 6.1×10^-10 M, for three hours at 4° C., with 10^6 TS1 cells. Bound material was separated from free ligand via centrifugation over a layer of dibutyl and dioctyl phthalate (15:I). In addition, the experiments were repeated using various interleukins, interferon-γ (\"INF-γ\"), tumor necrosis factor (\"TNF\"), and granulocyte, macrophage colony stimulating factor (\"GM-CSF\"). All experiments were carried out in triplicate."}, "[2]": {"biological_target": "T1, IL-9R", "assay": "Saturation binding of radiolabelled rIL-9 to TS-1 cells, Scatchard transformation", "parameters": "endogenous in cells; host or cells: TS1 cells (mouse, IL-9 dependent)", "experimental": "Experiments were performed to study the saturation binding of rIL-9. In these studies, as depicted in FIGS. 4a and 4b, increasing concentrations of radiolabelled rIL-9 were incubated with TS-1 cells (5×10^6 cells, 4° C. for three hours). This binding assay, as with those described supra. used 140 ul of DMEM containing BSA and Na3 N, also as described supra. Binding plateaued at 1 nM concentration, with half maximal saturation being reached at approximately 100 pM (FIG. 4a)."}, "[3]": {"conditions": "radiolabelled rIL-9, 5×10^6 TS-1 cells, 4° C., three hours (FIG. 4a)"}},
  "data": [
    {"molecule": "IL-4: interleukin tested as competitor of IL-9 binding", "values": [
      {"measurement": "Bound Radioactivity", "setting": "[1]; competitor 8.0 × 10^-8 M", "value": "4154 ± 156", "unit": "cpm"}
    ]},
    {"molecule": "IL-5: interleukin tested as competitor of IL-9 binding", "values": [
      {"measurement": "Bound Radioactivity", "setting": "[1]; competitor 2.7 × 10^-8 M", "value": "4642 ± 77", "unit": "cpm"}
    ]},
    {"molecule": "IL-1α: interleukin tested as competitor of IL-9 binding", "values": [
      {"measurement": "Bound Radioactivity", "setting": "[1]; competitor 8.7 × 10^-8 M", "value": "4232 ± 177", "unit": "cpm"}
    ]},
    {"molecule": "IL-6: interleukin tested as competitor of IL-9 binding", "values": [
      {"measurement": "Bound Radioactivity", "setting": "[1]; competitor 6.7 × 10^-8 M", "value": "4751 ± 61", "unit": "cpm"}
    ]},
    {"molecule": "B1", "values": [
      {"measurement": "Bound Radioactivity", "setting": "[1]; competitor 6.4 × 10^-8 M", "value": "4682 ± 63", "unit": "cpm"}
    ]},
    {"molecule": "B2", "values": [
      {"measurement": "Bound Radioactivity", "setting": "[1]; competitor 2.4 × 10^-8 M", "value": "4944 ± 8", "unit": "cpm"}
    ]},
    {"molecule": "B3", "values": [
      {"measurement": "Bound Radioactivity", "setting": "[1]; competitor 1.2 × 10^-9 M", "value": "733 ± 21", "unit": "cpm"},
      {"measurement": "Bound Radioactivity", "setting": "[1]; competitor 6.1 × 10^-8 M", "value": "80 ± 8", "unit": "cpm"},
      {"measurement": "density of IL-9 receptor", "setting": "[2]; Scatchard transformation, 3 runs, TS-1 cells (FIG. 4b)", "value": "3111±565 /cell"},
      {"measurement": "Kd", "setting": "[2]; Scatchard transformation, 3 runs, TS-1 cells, single class of receptor (FIG. 4b)", "value": "0.103 ± 0.013", "unit": "nM"},
      {"measurement": "concentration at which binding plateaued", "setting": "[2]; [3]", "value": 1, "unit": "nM"},
      {"measurement": "half maximal saturation", "setting": "[2]; [3]", "value": "approximately 100 pM"}
    ]}
  ]
}
